The term Kd denotes a measure of binding affinity in units of concentration.

Series [1] has as its target T1, IRF4 DBD D117H (Homo sapiens, UniProt Q15306 20-132, D117H).
T1 sequence: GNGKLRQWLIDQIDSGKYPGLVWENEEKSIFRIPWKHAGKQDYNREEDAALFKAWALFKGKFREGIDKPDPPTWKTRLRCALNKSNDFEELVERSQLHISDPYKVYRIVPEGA
The experiment in a line: FP; FP: PBS + 0.05% Tween20, 5 nM DNA, 1 h, room temperature; SPR: Biacore S200, SA chip, protein 0.1-4500 nM, running buffer not given in material; errors are SD. The conditions noted are these: protein: recombinant; tags: N-terminal His8-linker-His8-TEV, cleaved; label: 3' fluorescein (FAM); hairpin, TTTT loop.

Another series concerns the target T2, IRF4 DBD C99A (Homo sapiens, UniProt Q15306 20-132, C99A).
T2 sequence: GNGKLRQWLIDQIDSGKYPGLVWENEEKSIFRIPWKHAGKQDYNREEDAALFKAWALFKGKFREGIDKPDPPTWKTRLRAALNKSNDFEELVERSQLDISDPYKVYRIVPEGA
Description: SPR steady state; FP: PBS + 0.05% Tween20, 5 nM DNA, 1 h, room temperature; SPR: Biacore S200, SA chip, protein 0.1-4500 nM, running buffer not given in material; errors are SD. The note with it: protein: recombinant; tags: N-terminal His8-linker-His8-TEV, cleaved; label: 3' biotin; hairpin, TTTT loop. (In general: Surface plasmon resonance follows binding to a sensor surface in real time, without labels.)

A further series has as its target T3, IRF4 DBD K123R (Homo sapiens, UniProt Q15306 20-132, K123R).
T3 sequence: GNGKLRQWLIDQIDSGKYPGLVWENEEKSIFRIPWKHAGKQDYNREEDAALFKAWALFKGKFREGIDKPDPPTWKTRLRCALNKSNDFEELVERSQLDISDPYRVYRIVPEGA
The series is described as above. The note with it: protein: recombinant; tags: N-terminal His8-linker-His8-TEV, cleaved; label: 3' biotin; hairpin, TTTT loop.

The next series addresses T4, IRF4 DBD T95K (Homo sapiens, UniProt Q15306 20-132, T95K).
T4 sequence: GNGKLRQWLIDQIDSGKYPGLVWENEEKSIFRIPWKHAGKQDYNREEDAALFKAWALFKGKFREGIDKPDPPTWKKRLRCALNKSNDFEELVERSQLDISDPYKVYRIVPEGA
Described as above. The conditions noted are these: protein: recombinant; tags: N-terminal His8-linker-His8-TEV, cleaved; label: 3' biotin; hairpin, TTTT loop.

For a further series, the target named is T5, IRF4 DBD C99S (Homo sapiens, UniProt Q15306 20-132, C99S).
T5 sequence: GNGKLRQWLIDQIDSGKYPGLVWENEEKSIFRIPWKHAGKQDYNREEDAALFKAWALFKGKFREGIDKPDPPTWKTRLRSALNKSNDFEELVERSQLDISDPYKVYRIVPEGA
The description is as above. The note with it: protein: recombinant; label: 3' biotin; hairpin, TTTT loop.

The target in the next series is T6, IRF4 DBD wild-type (Homo sapiens, UniProt Q15306 20-132).
T6 sequence: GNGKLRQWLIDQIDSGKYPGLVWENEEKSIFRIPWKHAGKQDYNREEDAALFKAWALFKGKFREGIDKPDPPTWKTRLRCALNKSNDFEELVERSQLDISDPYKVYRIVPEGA
The description is as above. The conditions noted are these: protein: recombinant; tags: N-terminal His8-linker-His8-TEV, cleaved; label: 3' biotin; hairpin, TTTT loop.

Series [2] addresses T1, IRF4 DBD D117H. The series is described as above. The conditions noted are these: protein: recombinant; tags: N-terminal His8-linker-His8-TEV, cleaved; label: 3' biotin; hairpin, TTTT loop.
Another series concerns the target T7, IRF4 DBD D106Y (Homo sapiens, UniProt Q15306 20-132, D106Y).
T7 sequence: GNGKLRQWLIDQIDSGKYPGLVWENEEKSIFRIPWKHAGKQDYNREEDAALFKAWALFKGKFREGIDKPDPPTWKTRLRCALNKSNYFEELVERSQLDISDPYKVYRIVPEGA
Described as above. The note with it: protein: recombinant; tags: N-terminal His8-linker-His8-TEV, cleaved; label: 3' biotin; hairpin, TTTT loop.

Another series addresses T8, IRF4 DBD T95R (Homo sapiens, UniProt Q15306 20-132, T95R).
T8 sequence: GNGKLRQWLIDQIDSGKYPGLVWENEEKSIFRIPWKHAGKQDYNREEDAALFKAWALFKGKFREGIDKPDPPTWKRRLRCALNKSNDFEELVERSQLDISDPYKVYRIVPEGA
The series is described as above. The note with it: protein: recombinant; tags: N-terminal His8-linker-His8-TEV, cleaved; label: 3' biotin; hairpin, TTTT loop.

The next series concerns the target T9, IRF4 DBD S114R (Homo sapiens, UniProt Q15306 20-132, S114R).
T9 sequence: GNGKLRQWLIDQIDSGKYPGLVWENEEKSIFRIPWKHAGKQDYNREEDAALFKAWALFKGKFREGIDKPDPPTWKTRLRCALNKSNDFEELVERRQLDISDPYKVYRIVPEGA
Described as above. The conditions noted are these: protein: recombinant; tags: N-terminal His8-linker-His8-TEV, cleaved; label: 3' biotin; hairpin, TTTT loop.

On to CTTGGTTTCACTTCCTGCGTTTTCGCAGGAAGTGAAACCAAG (structured_DNA) [IRE hairpin (FAM)], for which, in the series with IRF4 DBD D117H [1], the Kd came out at 131 ± 28 nM.
For the molecule CTTGGTTTCACTTCCTGCGTTTTCGCAGGAAGTGAAACCAAG (structured_DNA) [IRE hairpin (biotin)], the Kd came to 173 ± 60 nM with IRF4 DBD C99A; 491 ± 48 nM with IRF4 DBD K123R; 594 ± 251 nM with IRF4 DBD T95K; 338 ± 173 nM in the series with IRF4 DBD C99S; 402 ± 165 nM with IRF4 DBD wild-type; 247 ± 84 nM with IRF4 DBD D117H [2]. Also, the figures for the Kd with IRF4 DBD D106Y, with IRF4 DBD T95R and with IRF4 DBD S114R were 178 ± 43 nM, 449 ± 49 nM and 213 ± 94 nM, respectively.

These data come from doi:10.1101/2025.03.12.642038, “Structural, biophysical and biological analysis and characterisation of IRF4 DNA-binding domain mutations associated with multiple myeloma”.
